These results are taken from paper doi:10.1101/2020.04.16.045526.

This data set concerns the target T1, HapR (Vibrio cholerae E7946 (El Tor)) (UniProt Q4F6W7).
T1 sequence: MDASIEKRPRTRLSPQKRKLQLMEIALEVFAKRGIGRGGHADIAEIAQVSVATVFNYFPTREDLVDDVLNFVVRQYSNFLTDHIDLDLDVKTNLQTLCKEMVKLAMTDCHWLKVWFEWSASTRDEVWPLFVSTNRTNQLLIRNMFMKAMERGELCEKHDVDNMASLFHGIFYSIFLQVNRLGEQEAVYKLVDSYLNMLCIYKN
The data set can be described thus: EMSA. As to conditions: 1-2 internal Cy5-dCTP incorporated by PCR. (In general: In EMSA bound probe runs differently from free probe, usually more slowly.)

With “TAAGCAAACTGTAGCGTAGAAGGTTGACGAAACAAGCAATCATCTGCTAACAATGGTCCGTGTGATACCCATCATCCGGGCCATTTATTTTAGGGATATAAGACTATGAGCTACCAAGAAAAAAATGCA (double strand) [PclpP promoter probe]”, the binding result is “no binding”.
